What was measured:
Experiment in all cases: cell-based or functional assay
[1] = molecular target: T1, human CD19 on cells (CD20+ gated blood B cells; Raji/GF, HBL-2, Jeko-1 cells; CLL B cells) (human, UniProt P15391 20-556)
T1 sequence (looked up): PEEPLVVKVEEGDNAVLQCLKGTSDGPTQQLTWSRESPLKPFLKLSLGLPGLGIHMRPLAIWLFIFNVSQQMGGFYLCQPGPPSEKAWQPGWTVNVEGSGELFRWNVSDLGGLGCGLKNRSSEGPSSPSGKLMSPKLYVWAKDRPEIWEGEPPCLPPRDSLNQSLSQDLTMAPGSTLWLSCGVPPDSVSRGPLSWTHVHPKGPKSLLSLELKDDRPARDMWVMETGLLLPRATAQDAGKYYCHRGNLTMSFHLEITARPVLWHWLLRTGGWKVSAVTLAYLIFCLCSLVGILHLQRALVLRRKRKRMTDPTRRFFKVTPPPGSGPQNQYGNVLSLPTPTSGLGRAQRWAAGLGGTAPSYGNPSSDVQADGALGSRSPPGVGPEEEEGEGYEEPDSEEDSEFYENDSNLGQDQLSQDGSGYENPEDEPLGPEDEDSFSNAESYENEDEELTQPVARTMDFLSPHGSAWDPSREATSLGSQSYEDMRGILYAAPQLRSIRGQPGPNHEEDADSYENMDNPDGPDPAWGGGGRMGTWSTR

[2] = molecular target: T1, human CD19 on cells (CD20+ gated blood …); remark: listed apart in the source
[3] = molecular target: T1, human CD19 on cells (CD20+ gated blood …); remark: listed apart in the source
[4] = molecular target: T1, human CD19 on cells (CD20+ gated blood …); remark: listed apart in the source
[5] = molecular target: T2, cynomolgus monkey CD19 on CD20+ gated blood B cells (cynomolgus monkey, UniProt A0A2K5W8L9 20-557)
T2 sequence: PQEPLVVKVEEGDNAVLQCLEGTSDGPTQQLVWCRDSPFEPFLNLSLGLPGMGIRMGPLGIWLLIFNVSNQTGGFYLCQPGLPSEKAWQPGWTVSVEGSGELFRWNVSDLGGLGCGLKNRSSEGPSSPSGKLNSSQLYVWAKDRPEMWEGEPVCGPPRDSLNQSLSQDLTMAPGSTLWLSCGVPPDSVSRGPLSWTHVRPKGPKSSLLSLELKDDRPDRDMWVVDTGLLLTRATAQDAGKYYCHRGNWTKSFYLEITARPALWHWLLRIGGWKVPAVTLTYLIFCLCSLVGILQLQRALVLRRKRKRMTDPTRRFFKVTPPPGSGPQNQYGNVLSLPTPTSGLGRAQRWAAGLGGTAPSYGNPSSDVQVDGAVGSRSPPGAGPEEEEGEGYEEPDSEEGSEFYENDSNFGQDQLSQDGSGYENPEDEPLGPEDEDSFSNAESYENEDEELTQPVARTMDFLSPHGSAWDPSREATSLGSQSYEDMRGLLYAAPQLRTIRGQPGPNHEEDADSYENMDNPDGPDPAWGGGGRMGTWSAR

[6] = molecular target: T1, human CD19 on cells (CD20+ gated blood …); remark: listed apart in the source
[7] = molecular target: T1, human CD19 on cells (CD20+ gated blood …); remark: listed apart in the source

B1: DART-A (CD19×CD3 bi-specific monovalent Fc diabody) (bispecific antibody)
chain 1: ENVLTQSPATLSVTPGEKATITCRASQSVSYMHWYQQKPGQAPRLLIYDASNRASGVPSRFSGSGSGTDHTLTISSLEAEDAATYYCFQGSVYPFTFGQGTKLEIKGGGSGGGGEVQLVESGGGLVQPGGSLRLSCAASGFTFSTYAMNWVRQAPGKGLEWVGRIRSKYNNYATYYADSVKGRFTISRDDSKNSLYLQMNSLKTEDTAVYYCVRHGNFGNSYVSWFAYWGQGTLVTVSSASTKGEVAACEKEVAALEKEVAALEKEVAALEKGGGDKTHTCPPCPAPEAAGGPSVFLFPPKPKDTLMISRTPEVTCVVVDVSHEDPEVKFNWYVDGVEVHNAKTKPREEQYNSTYRVVSVLTVLHQDWLNGKEYKCKVSNKALPAPIEKTISKAKGQPREPQVYTLPPSREEMTKNQVSLWCLVKGFYPSDIAVEWESNGQPENNYKTTPPVLDSDGSFFLYSKLTVDKSRWQQGNVFSCSVMHEALHNHYTQKSLSLSPGK
chain 2: QAVVTQEPSLTVSPGGTVTLTCRSSTGAVTTSNYANWVQQKPGQAPRGLIGGTNKRAPWTPARFSGSLLGGKAALTITGAQAEDEADYYCALWYSNLWVFGGGTKLTVLGGGGSGGGGQVTLRESGPALVKPTQTLTLTCTFSGFSLSTSGMGVGWIRQPPGKALEWLAHIWWDDDKRYNPALKSRLTISKDTSKNQVFLTMTNMDPVDTATYYCARMELWSYYFDYWGQGTTVTVSSASTKGKVAACKEKVAALKEKVAALKEKVAALKE
chain 3: not shown
- EC50, cytotoxicity against Raji/GF target cells with cynomolgus monkey PBMCs as effector cells (E:T = 30:1) [1]: 0.013 pM
- average EC50 of redirected killing of HBL-2 cells, human T cells, E:T 10:1 [1]: 0.105 pM
- average EC50 of redirected killing of Jeko-1 cells, human T cells, E:T 10:1 [1]: 0.146 pM
- average EC50 of redirected killing of Raji/GF cells, human T cells, E:T 10:1 [1]: 0.307 pM
- EC50, redirected killing of Raji/GF cells, 24 hours, E:T = 5:1 [2]: 0.67 pM
- EC50, redirected killing of Raji/GF cells, 24 hours, E:T = 10:1 [2]: 0.14 pM
- EC50, redirected killing of Raji/GF cells, 48 hours, E:T = 2.5:1 [2]: 1.08 pM
- EC50, redirected killing of Raji/GF cells, 48 hours, E:T = 5:1 [2]: 0.38 pM
- EC50, redirected killing of Raji/GF cells, 48 hours, E:T = 10:1 [2]: 0.0441 pM
- EC50, redirected killing of Raji/GF cells, 72 hours, E:T = 1:1 [3]: 2.79 pM
- EC50, redirected killing of Raji/GF cells, 72 hours, E:T = 2.5:1 [3]: 1.54 pM
- EC50, redirected killing of Raji/GF cells, 96 hours, E:T = 1:1 [3]: 0.44 pM
- EC50, redirected killing of Raji/GF cells, 96 hours, E:T = 2.5:1 [3]: 0.422 pM
- EC50, autologous B cell depletion in human PBMCs, Human 5 (E:T = 8:1) [4]: 6.27 pM
- EC50, autologous B cell depletion in human PBMCs, Human 6 (E:T = 8:1) [4]: 2.75 pM
- EC50, autologous B cell depletion in human PBMCs, Human 7 (E:T = 5:1) [4]: 5.52 pM
- EC50, autologous B cell depletion in human PBMCs, Human 8 (E:T = 9:1) [4]: 1.84 pM
- mean EC50, autologous B cell depletion in human PBMCs [4]: 4.2 pM
- EC50, autologous B cell depletion in cynomolgus monkey PBMCs, Cyno 5 (E:T = 3:1) [5]: 166 pM
- EC50, autologous B cell depletion in cynomolgus monkey PBMCs, Cyno 6 (E:T = 2:1) [5]: 859 pM
- EC50, autologous B cell depletion in cynomolgus monkey PBMCs, Cyno 7 (E:T = 3:1) [5]: 107 pM
- EC50, autologous B cell depletion in cynomolgus monkey PBMCs, Cyno 8 (E:T = 7:1) [5]: 239 pM
- mean EC50, autologous B cell depletion in cynomolgus monkey PBMCs [5]: 343 pM
- mean EC50, IFN-γ release, human T cells with Raji/GF cells (n = 2) [6]: 5.51 pM
- mean EC50, IL-2 release, human T cells with Raji/GF cells (n = 2) [6]: 6.32 pM
- mean EC50, TNF-α release, human T cells with Raji/GF cells (n = 2) [6]: 3.71 pM
- mean EC50, cytotoxicity, HBL-2 (n = 5), CTL assay [6]: 0.11 pM
- mean EC50, cytotoxicity, Jeko-1 (n = 3), CTL assay [6]: 0.15 pM
- mean EC50, cytotoxicity, Raji/GF (n = 5), CTL assay [6]: 0.31 pM
- EC50, IFN-γ production, human T cells with Raji/GF cells, donor D44284, E:T = 10:1 [7]: 2.44 pM
- EC50, IFN-γ production, human T cells with Raji/GF cells, donor D47067, E:T = 10:1 [7]: 8.58 pM
- EC50, IL-2 production, human T cells with Raji/GF cells, donor D44284, E:T = 10:1 [7]: 1.33 pM
- EC50, IL-2 production, human T cells with Raji/GF cells, donor D47067, E:T = 10:1 [7]: 11.3 pM
- EC50, TNF-α production, human T cells with Raji/GF cells, donor D44284, E:T = 10:1 [7]: 0.626 pM
- EC50, TNF-α production, human T cells with Raji/GF cells, donor D47067, E:T = 10:1 [7]: 6.79 pM

— US20170247452A1 (MacroGenics, published 2017)
